Laboratory results as given in patent publication US9347942B2, “Ultrasensitive cell based sensors and uses thereof” (CANVAX BIOTECH SL, priority 2010, dated 2016).

B1: human chymase: Chymase-like serine protease (CMA1, NM_001836) used as granule stored reporter (protein, UniProt P23946 22-247, looked up)
Chymase: IIGGTECKPHSRPYMAYLEIVTSNGPSKFCGGFLIRRNFVLTAAHCAGRSITVTLGAHNITEEEDTWQKLEVIKQFRHPKYNTSTLHHDIMLLKLKEKASLTLAVGTLPFPSQFNFVPPGRMCRVAGWGRTGVLKPGSDTLQEVKLRLMDPQACSHFRDFDHNLQLCVGNPRKTKSAFKGDSGGPLLCAGVAQGIVSYGRSDAKPPAVFTRISHYRPWINQILQAN
B2: neutrophil elastase: Elastase-like serine protease (ELA2, NM_001972) used as granule stored reporter (protein, UniProt P08246 30-267, looked up)
Neutrophil elastase: IVGGRRARPHAWPFMVSLQLRGGHFCGATLIAPNFVMSAAHCVANVNVRAVRVVLGAHNLSRREPTRQVFAVQRIFENGYDPVNLLNDIVILQLNGSATINANVQVAQLPAQGRRLGNGVQCLAMGWGLLGRNRGIASVLQELNVTVVTSLCRRSNVCTLVRGRQAGVCFGDSGSPLVCNGLIHGIASFVRGGCASGLYPDAFAPVAQFVNWIDSIIQRSEDNPCPHPRDPDPASRTH
B3: human proteinase 3: Elastase-like serine protease (PRTN3, NM_002777) used as granule stored reporter (protein, UniProt P24158 28-248, looked up)
Myeloblastin: IVGGHEAQPHSRPYMASLQMRGNPGSHFCGGTLIHPSFVLTAAHCLRDIPQRLVNVVLGAHNVRTQEPTQQHFSVAQVFLNNYDAENKLNDVLLIQLSSPANLSASVATVQLPQQDQPVPHGTQCLAMGWGRVGAHDPPAQVLQELNVTVVTFFCRPHNICTFVPRRKAGICFGDSGGPLICDGIIQGIDSFVIWGCATRLFPDFFTRVALYVDWIRSTLR
B4: human granzyme A: Tryptase-like serine protease (GZMA, NM_006144) used as granule stored reporter (protein, UniProt P12544 29-262, looked up)
Granzyme A: IIGGNEVTPHSRPYMVLLSLDRKTICAGALIAKDWVLTAAHCNLNKRSQVILGAHSITREEPTKQIMLVKKEFPYPCYDPATREGDLKLLQLMEKAKINKYVTILHLPKKGDDVKPGTMCQVAGWGRTHNSASWSDTLREVNITIIDRKVCNDRNHYNFNPVIGMNMVCAGSLRGGRDSCNGDSGSPLLCEGVFRGVTSFGLENKCGDPRGPGVYILLSKKHLNWIIMTIKGAV

Experiments:
Format in all cases: cell-based, Rat
[1] = system: anti-TNP IgE labelled RBL2H3-hGB cells; experiment: IgE-allergen sensor, granzyme B release (Example 16); settings: substrate 1 uM
From the text: This example describes the use of the sensor for testing modulators of mast cells granule exocytosis widely used to find novel anti-allergic compounds as illustrated in FIG. 1. RBL2H3 were stably transfected with human granzyme B under the control of hCMV-MoLV5′LTR chimeric promoter as described in example 3. A mouse IgE monoclonal antibody against trinitrophenyl hapten was purified from IgELb4 hybridoma purchased from ATCC (TIB-141). TNP-N-hydroxysuccinimide esther was purchased from Biosearch Technologies Inc and conjugated to bovine serum albumin (BSA) using a standard protocol. Conjugation was determined at pH 7.0 by measuring TNP absorbance at 348 nm using 15400 units per mol per 10 mm light pass length as the extinction coefficient of TNP. Molar ratio of TNP to BSA in the TNP-BSA conjugate was calculated assuming the molecular weight of BSA is 60000. Sensor cells were cultivated as adherent cells for 48 hours in 6 well plates and then washed with HBSS and harvested by pippeting. 500.000 cells were labelled with anti-TNP IgE at 1 ug/ml_in HBSS for 60 minutes at 37 Celsius degrees, washed with 10 mL of HBSS, centrifuged and pellet was resuspended in 1 mL of HBSS. In a black wall 384 well plate 10 uL of serial dilutions of TNP-BSA in HBSS were added each containing the FRET-based granzyme B substrate FAM-[…]TAMRA (FAM-[…]-TAMRA) at 1 uM final concentration whose cleavage was detected by fluorescence using excitation at 485 nm and emission at 535 nm. Dilutions of TNP-BSA tested were: 1 ug/mL, 1 ng/mL, 1 pg/mL and 1 fg/mL. To each well 10 uL (5000 cells) of anti-TNP IgE labelled cells were added and plates were incubated at 37 Celsius degrees in a BMG-Labtech microplate fluorimeter. Microplate was read at 0, 15, 30, 45 and 60 minutes. The following controls were included: (1) wells with anti-TNP IgE labelled cells plus granzyme B substrate but without TNP-BSA; (2) wells with non-labelled cells plus granzyme B substrate and TNP-BSA at 1 ug/ml_; (3) wells with granzyme B substrate and TNP-BSA at 1 ug/ml_but no cells. Each well was included by triplicate.

RBL-2H3 cells [2] = experiment: Activity of granule stored protease reporters released by ionomycin, transient transfection (Example 4); settings: transiently transfected RBL-2H3, 650.000 cells, 10 uM ionomycin 1 hour, supernatant
From the text: Vectors were developed to express human granzyme A, M, H and K and human neutrophil elastase, human chymase, human cathepsin G and human proteinase 3 under the control of hCMV-MoMLV5′LTR chimeric promoter and RBL-2H3 cells were individually transfected by electroporation using a microporator (Gentelbio, South Korea) with the above plasmids and also with human granzyme B plasmid as control and with cytosolically truncated hNGFR receptor as a surface tag for determination of the percentage of transfection by flow cytometry with a anti-hNGFR monoclonal antibody conjugated to FITC (Miltenyi Biotec, Germany). After 48 hours cells were harvested by pipetting, washed with HBSS buffer and counted. 650.000 cells in 200 microliters of HBSS buffer were treated in suspension with 10 uM ionomycin for 1 hour and after centrifugation at 400 g for 5 minutes the supernatants were analysed for activity with specific fluorescent substrates. Controls of cells incubated with HBSS buffer only were included. Fluorescent substrates were specific tetrapeptides conjugated to 7-Amido-4-Methylcoumarin (AMC) and were custom synthesized by a custom peptide supplier. Specific substrates were: VANR-AMC for granzyme A; KVPL-AMC for granzyme M; PTSY-AMC for granzyme H; YRFK-AMC for granzyme K; PEEI-AMC for human neutrophil elastase; PTSY-AMC for human chymase; PTSY-AMC for human cathepsin G; VADC-AMC for human proteinase 3 and IEPD-AMC for human granzyme B. Released AMC was measured by excitation at 360 nm and emission at 460 nm in a BMG Labtech microplate fluorimeter in 96 well microplates using 125 microliters of supernatant and 125 microliters of specific substrate at 400 micromol per liter in HBSS buffer. Microplates were incubated at 37 Celsius degrees on the reader and were kinetically read at 0, 15, 30, 45 and 60 minutes. Percentage of transient electroporation measured using truncated hNGFR tag and anti-hNGFR-FITC antibody was about 60 percent.

RBL-2H3 cells [3] = experiment: Ionomycin-induced release of granule stored protease reporters from stable cell lines (Example 5); settings: stable RBL-2H3, 10 uM ionomycin 1 hour, supernatant equivalent to 100.000 cells, AMC substrate
From the text: As either tryptase-like enzymes, chymase-like enzymes, elastase-like enzymes or asp-ase like enzymes are useful for the methods of the present invention we selected human granzyme A (tryptase-like enzyme); human granzyme B (Asp-ase-like enzyme); human chymase (chymase-like enzyme) and human proteinase 3 (elastase-like enzyme) for further examples. Vectors were developed for stable expression of human granzyme A, human granzyme B, human chymase and human proteinase 3 under the control of hCMV-MoMLV5′LTR chimeric promoter. A hygromycin resistance cassette was included in the vector backbone for selection of stable populations of cells. The vector also included an IRES-NGFR cassette cloned downstream of granule stored protease reporter and thus, under the control of hCMV-MoMLV5′LTR promoter for flow cytometry and/or selection by MACS of stable cells expressing either human granzyme A or human granzyme B or human chymase or human proteinase 3. Each vector was individually electroporated using a microporator (Digital Bio Technology, South Korea) into RBL-2H3 and after 48 hours hygromycin at 1500 ug/mL was added to culture for selection. After selection for about 2 weeks cells were analysed by flow cytometry (Guava Technologies, USA) with an antibody against NGFR coupled to FITC. Positive population where magnetically separated by MACS using anti-NGFR-MACS sup.R (Miltenyi Biotec, Germany). Sorted populations were again analysed again by flow cytometry to check the sorting efficiency. Percentage of NGFR positive cells was always higher than 65 percent. Cells were seeded the night before experiment in 24 well microplates at 650.000 cells per well in 800 microliters of complete cell culture medium. Next day cells were washed with HBSS buffer and were treated with 10 uM ionomycin for 1 hour at 37 Celsius degrees in 200 uL of HBSS buffer and after centrifugation at 400 g for 5 minutes supernatants were analysed for activity with specific fluorescent substrates. Controls of cells incubated with HBSS buffer only were included. Fluorescent substrates were: VANR-AMC for granzyme A; PEEI-AMC for human neutrophil elastase; PTSY-AMC for human chymase; VADC-AMC for human proteinase 3 and IEPD-AMC for human granzyme B. Released AMC was measured by excitation at 360 nm and emission at 460 nm in a BMG Labtech microplate fluorimeter in 96 well microplates using 125 microliters of supernatant and 125 microliters of specific substrate at 400 micromol per liter in HBSS buffer. Microplates were incubated at 37 Celsius degrees on the reader and were kinetically read at 0, 15, 30, 45 and 60 minutes. Control wells with substrate only in HBSS buffer were included to subtract autofluorescence of substrates to both cells treated with ionomycin and to cells treated with HBSS buffer only. Autofluorescence of peptide substrates in HBSS buffer was about 3000 while fluorescence of cells treated with HBSS buffer only for 60 minutes at 37 Celsius degrees was about 5000, that is basal release in the absence of exocytosis modulator was about 2000. In contrast, fluorescence of ionomycin-induced release of human granzymes A and B was about 20.000 for a signal to background of 10 when using the supernatant equivalent to 100.000 cells; fluorescence of ionomycin-induced release of human chymase was about 30.000 for a signal to background of 15 when using the supernatant equivalent to 100.000 cells and fluorescence of ionomycin-induced release of human proteinase 3 was about 12.000 for a signal to background of 6 when using the supernatant equivalent to 100.000 cells. Thus, tryptase-like enzymes, chymase-like enzymes, elastase-like enzymes or asp-ase like enzymes can be stably expressed into granules of hemopoyetic cells with professional regulated exocytosis and such granule stored proteases are released by exocytosis modulators to produce sensors with good signal to background ratios using specific AMC-coupled peptide substrates. […]

| Molecule | Fluorescence after 30 minutes at 37° C. ([1]; TNP-BSA 1 pg/mL, 5000 cells with anti-TNP IgE) | Fluorescence after 30 minutes at 37° C. ([1]; TNP-BSA 1 ng/mL, 5000 cells with anti-TNP IgE) | Fluorescence after 30 minutes at 37° C. ([1]; TNP-BSA 1 ug/mL, 5000 cells with anti-TNP IgE) | Fluorescence after 30 minutes at 37° C. ([1]; TNP-BSA 1 ug/mL, 5000 cells without anti-TNP IgE (non-labelled)) | Fluorescence after 30 minutes at 37° C. ([1]; TNP-BSA 1 fg/mL, 5000 cells with anti-TNP IgE) | enzymatic activity of released reporter with specific AMC substrate (RBL-2H3 cells [2]) | fluorescence of ionomycin-induced release (RBL-2H3 cells [3]) | signal to background (RBL-2H3 cells [3]) |
| --- | --- | --- | --- | --- | --- | --- | --- | --- |
| TNP-BSA: trinitrophenyl hapten conjugated to bovine serum albumin, model allergen | 35884 | 34556 | 30942 | 2935 | 29826 |  |  |  |
| B1 |  |  |  |  |  | highest activity | about 30.000 | 15 |
| B2 |  |  |  |  |  | equivalent activity that was higher than that of human granzyme M |  |  |
| B3 |  |  |  |  |  | equivalent activity that was higher than that of human granzyme M | about 12.000 | 6 |
| B4 |  |  |  |  |  | higher activity than granzyme K | about 20.000 | 10 |
